# Reference: patent US8481032B2, “Lipocalin-2 antibodies for methods of treatment” (The University of Hong Kong, priority 2006, dated 2013)
# B1: Lipocalin-2: recombinant murine lipocalin-2 expressed in BL21 cells, His6 tag and endotoxin removed (protein)
# chain: QDSTQNLIPAPSLLTVPLQPDFRSDQFRGRWYVVGLAGNAVQKKTEGSFTMYSTIYELQENNSYNVTSILVRDQDQGCRYWIRTFVPSSRAGQFTLGNMHRYPQVQSYNVQVATTDYNQFAMVFFRKTSENKQYFKITLYGRTKELSPELKERFTRFAKSLGLKDDNIIFSVPTDQCIDN
# modifications: left off: small tags and cut ends
# notes: recombinant murine lipocalin-2 expressed in BL21 cells, His6 tag and endotoxin removed
# Columns and labels:
# T2DM patients = assay: Rosiglitazone treatment of T2DM patients: serum lipocalin-2 and metabolic parameters; type: in vivo, human; conditions: 32 T2DM patients, rosiglitazone 4 mg twice daily, 8 weeks
# Protocol: The affinity-purified anti-human or anti-murine lipocalin-2 IgG was biotinylated with a kit from Pierce and used as the detection antibodies. The unlabeled anti-human or anti-murine lipocalin-2 IgG was used for coating a 96-well microtiter plate overnight at 4° C. Human or mouse serum was diluted (1:50) into PBS, and 100 μl of the diluted samples or recombinant standards were applied to each well and incubated at 37° C. for 1 h. The plates were washed three times and then incubated with 100 μl of the detection antibody for another 2 h. After washing for another three times with PBS, the wells were incubated with streptavidin-conjugated horseradish peroxidase for 1 h and subsequently reacted with tetramethyl-benzidine reagent for 15 min. A total of 100 μl of 2 M H2SO4 was added to each well to stop the reaction, and the absorbance at 450 nm was measured. The intra- and inter-assay coefficients of variance were determined by measuring five serum samples in a total of six independent assays with duplicate determinations.
# The effect of rosiglitazone on serum levels of lipocalin-2 was investigated in 32 T2DM patients (see Example 2) treated with this drug (4 mg twice daily) for 8 weeks.
# C57 mice = assay: Chronic treatment of C57 mice with recombinant lipocalin-2: body weight, food intake, metabolic parameters, ipGTT and ITT; type: in vivo, mouse
# Protocol: Fasting (16 hr) plasma glucose levels and triglyceride (TG) concentrations were measured by using a Glucose (GO) assay kit (Sigma) and Triglyceride GPO reagent (Pointe Scientific Inc., Lincoln Park, Mich., USA) respectively. Fasting serum insulin concentrations were quantified by using the commercial ELISA kits from Mercodia AB (Uppsala, Sweden). Serum total cholesterol and free fatty acids (FFAs) were analyzed by using the kits from Wako (Richmond, Va., USA) and Roche Diagnostics respectively. TG contents in liver and soleus muscle were analyzed as described elsewhere (Ellis, B. A et al., Am J Physiol Endocrinol Metab. 279:E554-560 (2000); Xu, A., et al. J Clin Invest 112:91-100 (2003)).
# For ipGTT, overnight fasted mice (16 hr) were given a glucose load by intraperitoneal injection (1 g glucose/kg body weight). For ITT, mice were starved for 6 h, and then intraperitonally injected with insulin (1 U/kg body weight). Plasma glucose levels were measured at different time points as indicated.
# (§1) To evaluate the effect of lipocalin-2 on glucose homeostasis and insulin sensitivity, normal C57 mice were treated with murine lipocalin-2 by intraperitoneal injection of the recombinant protein (5 mg protein/kg body weight, twice a day at 12 hr intervals).
# [1] = test system: genes involved in glucose and lipid metabolism in skeletal muscle and liver; assay: mRNA expression of genes involved in glucose and lipid metabolism in skeletal muscle and liver of lipocalin-2-treated mice; type: in vivo, mouse; conditions: versus vehicle
# Protocol: Total RNA was isolated from mouse liver, epididymal adipose tissue and soleus muscle using the RNeasy kit (Qiagen). Subsequently, mRNA was reverse transcribed into cDNA using the oligo-dT primer (Roche). The relative gene abundance was quantified by Taqman real-time PCR using the pre-developed assay kits (Applied Biosystems, Foster city, CA). The reactions were performed on the ABI 7000 sequence detection system.
# as §1
# The effects of lipocalin-2 on mRNA expression of several genes involved in glucose and lipid metabolism in skeletal muscle and liver were investigated (FIGS. 4A-4B).
# L6 myotubes [2] = assay: 2-deoxyglucose uptake in L6 myotubes; type: cell-based, rat
# Protocol: FIG. 6 is a bar graph of 2-deoxyglucose uptake (arbitrary units) in L6 myotubes treated without or with indicated concentrations of lipocalin-2 for 48 hr, and then stimulated without or with insulin for another 20 min. The rate of glucose uptake was measured by uptake of 2-deoxy-D-[^3H]glucose. * P<0.05 versus untreated cells; # P<0.05 versus cells treated with insulin alone (n=4-6).
# (§2) Rat L6 skeletal myoblasts were grown in α-minimum essential medium (αMEM) containing 10% (v/v) FBS and 1% antibiotic solution (100 units/ml penicillin, 100 μg/ml streptomycin, 250 ng/ml amphotericin B) in a humidified atmosphere of 95% air and 5% CO2 at 37° C. For differentiation to myotubes, cells were cultured in αMEM containing 2% (v/v) FBS for 5-7 days.
# Cells were incubated with various concentration of lipocalin-2 for 20 h, subsequently serum-starved in the continued presence of lipocalin-2 for the final 4 h in 24-well plates prior to further treatment. Cells were then washed twice with PBS and treated with insulin or vehicle for 15 min. After treatments, glucose uptake was determined. Briefly, cells were incubated in transport solution (140 mM NaCl, 20 mM HEPES-Na, 2.5 mM MgSO4, 1 mM CaCl2, 5 mM KCl and 0.5 μCi/ml 2-deoxy-D-[^3H]glucose, pH 7.4) for 5 min at room temperature. Nonspecific uptake was measured in the presence of cytochalasin B (10 μM). Cells were then lysed with 1 M KOH, and aliquots were transferred to scintillation vials for ^3H radioactivity counting.
# L6 myotubes [3] = assay: Fatty acid uptake, fatty acid oxidation and triglyceride accumulation in L6 myotubes; type: cell-based, rat
# Description: FIG. 5A is a bar graph of […] ^3H-palmitate uptake (fold over control) in differentiated L6 myotubes treated with the indicated concentrations of lipocalin-2 or vehicle for 48 hr. FIG. 5B is a bar graph of ^14C-oleate oxidation (fold over control) in differentiated L6 myotubes treated with the indicated concentrations of lipocalin-2 or vehicle for 48 hr. Fatty acid oxidation was quantified by the production of ^14CO2 from [1-^14C]oleate. * P<0.05; ** P<0.01 versus untreated cells.
# as §2
# [^3H]-palmitic acid (Amersham, Quebec, Canada) was used to determine fatty acid uptake as previously described (Bastie, C. C., et al. Diabetes, 53:2209-2216 (2004)). with slight modifications. […] After treatments, culture medium was removed and cells washed twice with wash buffer (140 mM NaCl, 20 mM HEPES-Na, 2.5 mM MgSO4, 1 mM CaCl2, 5 mM KCl pH 7.4, 0.1% defatted albumin) and once with HEPES buffer. Cells were subsequently incubated with transport solution (10 μM defatted albumin, 0.5 μCi/ml [^3H]-palmitic acid; FA:BSA ratio=2) for 1 minute at room temperature. Then the reaction was stopped by washing with pre-cold stop buffer (140 mM NaCl, 20 mM HEPES-Na, 2.5 mM MgSO4, 1 mM CaCl2, 5 mM KCl pH 7.4) Non-specific uptake was measured in the presence of excess palmitate (2 mM) and subtracted from all other values. Cells were then lysed with 1 M KOH and aliquots were transferred to scintillation vials for ^3H radioactivity counting.
# [4] = fasting, recombinant lipocalin-2 5 mg/kg i.p. twice a day, 4 weeks
# [5] = recombinant lipocalin-2 5 mg/kg i.p. twice a day, 4 weeks
# [6] = liver tissue of lipocalin-2-treated mice
# [7] = skeletal muscle of lipocalin-2-treated mice
# [8] = L6 myotubes, acute treatment within 2 hr (data not shown)
molecule,measurement,setting,value
CN(CCOc1ccc(CC2SC(=O)NC2=O)cc1)c1ccccn1 (centres unmarked) [rosiglitazone],Body Mass Index,T2DM patients,25.5 ± 3.6 Kg/m^2
same,Fasting Glucose,T2DM patients,6.8 ± 1.2 mM
same,Fasting Insulin,T2DM patients,7.9 ± 3.5 mIU/l
same,HOMA-IR,T2DM patients,2.4 ± 1.2
same,Lipocalin-2 (serum level),T2DM patients,61.9 ± 25.9 ng/mL
B1,"daily average of serum lipocalin-2 levels, higher than that of the endogenous protein",C57 mice; 5 mg protein/kg i.p. twice a day at 12 hr intervals,2.2-3.5 folds
same,Plasma glucose,C57 mice; [4],137.4 ± 11.6 mg/dL
same,Plasma insulin,C57 mice; [4],1.5 ± 0.04 ng/mL
same,Serum TG,C57 mice; [4],93.9 ± 8.9 mg/dL
same,glucose tolerance (ipGTT),"C57 mice; long-term lipocalin-2 treatment, day 24, 1 g glucose/kg i.p.",induced glucose intolerance
same,insulin sensitivity (ITT),"C57 mice; long-term lipocalin-2 treatment, day 26, insulin 1 U/kg i.p.",decreased insulin sensitivity
same,Serum FFAs,C57 mice; [5],0.72 ± 0.08 mmol/L
same,Serum adiponectin,C57 mice; [5],7.9 ± 1.8 µg/mL
same,Serum total cholesterol,C57 mice; [5],101.4 ± 8.8 mg/dL
same,TG contents in liver,C57 mice; [5],6.9 ± 0.8 mg/g tissue
same,TG contents in muscle,C57 mice; [5],7.3 ± 0.8 mg/g tissue
same,expression of glucose-6-phosphatase (G6P),[1]; [6],"modest, but significant increase"
same,expression of phosphoenolpyruvate carboxylase (PEPCK),[1]; [6],"modest, but significant increase"
same,"expression of several genes involved in fatty acid transport, synthesis and oxidation",[1]; [6],did not modulate
same,expression of GLUT1,[1]; [7],decreased
same,"expression of GLUT4, acetyl CoA carboxylase (ACO) and several other fatty acid transport proteins (FATP2, 3 and 5, and CD36)",[1]; [7],did not affect
same,expression of acyl-CoA oxidase,[1]; [7],inhibited
same,expression of uncoupling protein 2 (UCP2),[1]; [7],inhibited
same,steady-state mRNA level of fatty acid transport protein 1 (FATP-1),[1]; [7],significantly increased
same,steady-state mRNA level of fatty acid transport protein 4 (FATP-4),[1]; [7],significantly increased
same,basal glucose uptake,L6 myotubes [2]; L6 myotubes at 48 hr after lipocalin-2 treatment,significantly decreased
same,"basal and insulin-stimulated glucose uptake, acute treatment",L6 myotubes [2]; [8],no obvious effects
same,"magnitude of insulin-stimulated increase in glucose uptake, versus untreated cells","L6 myotubes [2]; L6 myotubes, lipocalin-2-treated, not statistically significant",slightly lower
same,"triglyceride accumulation, increase compared with untreated cells","L6 myotubes [3]; L6 myotubes at 72 hr following lipocalin-2 treatment, n=4, p<0.05",1.51±0.58 folds
same,"fatty acid uptake and oxidation, acute treatment",L6 myotubes [3]; [8],no obvious effects
same,fatty acid uptake,"L6 myotubes [3]; L6 myotubes, prolonged incubation with lipocalin-2 (24 h and 48 h), 3H-palmitate",significant increase
same,rate of fatty acid oxidation,"L6 myotubes [3]; L6 myotubes, prolonged incubation with lipocalin-2 (24 h and 48 h), 14C-oleate",decrease
